B1: FLAG-tagged C-terminal BAAT1 (amino acids 176-821) (other)
chain: MRGGAEGQPCLPGGDWPACAQKIMDHVEESLCSAATPKVTQALNVLTTTFGRCQSPWTEALWVRLSPRVACLLERDPIPAAHSFVDLLLCVARSPVFSSSDGSLWETVARALSCLGPTHMGPLALGILKLEHCPQALRTQAFQVLLQPLACVLKATVQAPGPPGLLDGTADDATTVDTLLASKSSCAGLLCRTLAHLEELQPLPQRPSPWPQASLLGATVTVLRLCDGSAAPASSVGGHLCGTLAGCVRVQRAALDFLGTLSQGTGPQELVTQALAVLLECLESPGSSPTVLKKAFQATLRWLLSSPKTPGCSDLGPLIPQFLRELFPVLQKRLCHPCWEVRDSALEFLTQLSRHWGGQADFRCALLASEVPQLALQLLQDPESYVRASAVTAMGQLSSQGLHAPTSPEHAEARQSLFLELLHILSVDSEGFPRRAVMQVFTEWLRDGHADAAQDTEQFVATVLQAASRDLDWEVRAQGLELALVFLGQTLGPPRTHCPYAVALPEVAPAQPLTEALRALCHVGLFDFAFCALFDCDRPVAQKSCDLLLFLRDKIASYSSLREARGSPNTASAEATLPRWRAGEQAQPPGDQEPEAVLAMLRSLDLEGLRSTLAESSDHVEKSPQSLLQDMLATGGFLQGDEADCY
notes: Expressed in 293T cells; co-precipitated with BRCA1 by the anti BRCA1 21A1 antibody and blotted with anti FLAG; not shown: FLAG tag
B2: GST-tagged BRCA1 BRCT domains, breast cancer-associated mutant Met1775Arg (other, UniProt P38398 1560-1863, looked up)
chain: GTPYLESGISLFSDDPESDPSEDRAPESARVGNIPSSTSALKVPQLKVAESAQSPAAAHTTDTAGYNAMEESVSREKPELTASTERVNKRMSMVVSGLTPEEFMLVYKFARKHHITLTNLITEETTHVVMKTDAEFVCERTLKYFLGIAGGKWVVSYFWVTQSIKERKMLNEHDFEVRGDVVNGRNHQGPKRARESQDRKIFRGLEICCYGPFTNRPTDQLEWMVQLCGASVVKELSSFTLGTGVHPIVVVQPDAWTEDNGFHAIGQMCEAPVVTREWVLDSVALYQCQELDTYLIPQIPHSHY
notes: domain: BRCT domains; also called M1775R; not shown: GST tag
B3: FLAG-tagged BAAT1 (full length) (other)
chain: MDPECAQLLPALCAVLVDPGQPVADDTCLEKLLDWFKTVTEGESSVVLLQEHPCLVELLSHVLKVQDLSSGVLSFSLRLAGTFAAQENCFQYLQQGELLPGLFGEPGPLGRATWAVPTVRSGWIQGLRSLAQHPSALRFLADHGAVDTIFSLQGDSSLFVASAASQLLVHVLALSMRGGAEGQPCLPGGDWPACAQKIMDHVEESLCSAATPKVTQALNVLTTTFGRCQSPWTEALWVRLSPRVACLLERDPIPAAHSFVDLLLCVARSPVFSSSDGSLWETVARALSCLGPTHMGPLALGILKLEHCPQALRTQAFQVLLQPLACVLKATVQAPGPPGLLDGTADDATTVDTLLASKSSCAGLLCRTLAHLEELQPLPQRPSPWPQASLLGATVTVLRLCDGSAAPASSVGGHLCGTLAGCVRVQRAALDFLGTLSQGTGPQELVTQALAVLLECLESPGSSPTVLKKAFQATLRWLLSSPKTPGCSDLGPLIPQFLRELFPVLQKRLCHPCWEVRDSALEFLTQLSRHWGGQADFRCALLASEVPQLALQLLQDPESYVRASAVTAMGQLSSQGLHAPTSPEHAEARQSLFLELLHILSVDSEGFPRRAVMQVFTEWLRDGHADAAQDTEQFVATVLQAASRDLDWEVRAQGLELALVFLGQTLGPPRTHCPYAVALPEVAPAQPLTEALRALCHVGLFDFAFCALFDCDRPVAQKSCDLLLFLRDKIASYSSLREARGSPNTASAEATLPRWRAGEQAQPPGDQEPEAVLAMLRSLDLEGLRSTLAESSDHVEKSPQSLLQDMLATGGFLQGDEADCY
notes: Transiently expressed in 293T cells; the clone used was IMAGE BC015632; also called FLAG-BAAT1; not shown: FLAG tag
B4: BAAT1 (endogenous, from human cell lysates) (other)
chain: B3 chain
notes: Endogenous cellular protein detected with the anti-BAAT1 antibody; also called endogenous BAAT1; hBAAT1

Experiments:
[1] = target: T1, BRCA1 (endogenous, from human cell lysates) (human, UniProt P38398 1-1863); assay: immunoprecipitation with anti BRCA1 21A1 from 293T cells, anti FLAG blot
T1 construct: Endogenous cellular protein immunoprecipitated with anti BRCA1 antibodies C-20 or 21A1; also called breast cancer susceptibility gene 1 protein; endogenous BRCA1
Excerpt: (§1) GST-BRCA1 fragments were precipitated with GSH beads and samples were immunoblotted with anti FLAG antibody. […] After immunoprecipitation with anti BRCA1 21A1 antibody, samples were immunoblotted with FLAG antibody. […] NS: non-specific signals. […] Two different anti BRCA1 antibodies (C-20 and 21A1) and anti ATM antibodies (N-17 and 2C1) were used for the assay.

[2] = target: B3; assay: GST pulldown from co-transfected 293T cells, anti FLAG blot
Experimental: as §1
(§2) Co-Immunoprecipitation and GST Pull-Down Assays: HeLa or NMEs cells were lysed for 30 min in 500 ml of lysis buffer (50 mM Tris-HCl pH 7.5, 100 mM NaCl, 0.5% NP-40, 0.5% DOC, 5 mM EDTA, and protease inhibitors: 100 mg/ml PMSF, 2 mg/ml Aprotinin, 2 mg/ml Leupeptin). One milligram of total cell lysates was incubated with 10 mg/ml of ethidium bromide and the primary antibody for 3 h followed by incubation with either Protein A or Protein G agarose beads overnight at 4° C. The immunocomplexes were separated on SDS-PAGE gels and visualized by Western blotting. […] After pulldown with GSH beads, samples were separated in SDS-polyacrylamide gel and visualized by Western blotting.

[3] = target: T1, BRCA1 (endogenous, from human cell …); assay: co-immunoprecipitation of endogenous proteins from HeLa cells
Experimental: as §1, §2

B1: binds [1].

B2: no binding [2].

B3: binds [1].

B4: binds [3].

From patent US20070072210A1 (published 2007)
